This note sets out measurements from paper PMC5063618 (Molecular Biology of the Cell, 2016).

Data set [1] addresses T1, rabbit skeletal muscle actin, as filaments (rabbit, UniProt P68135 1-377). The data set is described as follows: co-sedimentation.
The target in data set [2] is T1, rabbit skeletal muscle actin, as …. The data set is described as follows: co-sedimentation. This is another data set of the same source.
Data set [3] shares this target. The data set is described as follows: co-sedimentation. This is another data set of the same source.
The data set “AUC” deals with the molecule itself. The data set is described as follows: AUC.
Data set [4] deals with T1, rabbit skeletal muscle actin, as …. As to the kind of experiment: co-sedimentation. The source holds these as a separate data set.
For data set [5] the target is unchanged. As to the kind of experiment: co-sedimentation. The source holds these as a separate data set.
The target is the same in data set [6]. As to the kind of experiment: co-sedimentation. This is another data set of the same source.
Data set [7] has the same target. The data set is described as follows: co-sedimentation. The source holds these as a separate data set.
Data set [8] shares this target. The data set is described as follows: TIRF microscopy, fluorescence decay after washout.
The target is the same in data set [9]. The data set is described as follows: TIRF microscopy, fluorescence decay after washout. The source holds these as a separate data set.
Data set [10] shares this target. As to the kind of experiment: TIRF microscopy, fluorescence decay after washout. The source holds these as a separate data set.
Data set [11] shares this target. As to the kind of experiment: TIRF microscopy, fluorescence decay after washout. The source holds these as a separate data set.
For data set [12] the target is unchanged. As to the kind of experiment: TIRF microscopy, fluorescence decay after washout. This is another data set of the same source.
The target is the same in data set [13]. As to the kind of experiment: TIRF microscopy, fluorescence decay after washout. This is another data set of the same source.
Data set [14] shares this target. The data set is described as follows: TIRF microscopy, fluorescence decay after washout. This is another data set of the same source.
The target is the same in data set [15]. As to the kind of experiment: TIRF microscopy, fluorescence decay after washout. The source holds these as a separate data set.
For data set [16] the target is unchanged. The data set is described as follows: TIRF microscopy, fluorescence decay after washout. This is another data set of the same source.
The target is the same in data set [17]. The data set is described as follows: TIRF microscopy, fluorescence decay after washout. The source holds these as a separate data set.
The target is the same in data set [18]. As to the kind of experiment: TIRF microscopy, fluorescence decay after washout. This is another data set of the same source.
For data set [19] the target is unchanged. As to the kind of experiment: TIRF microscopy, fluorescence decay after washout. The source holds these as a separate data set.
For data set [20] the target is unchanged. The data set is described as follows: TIRF microscopy, fluorescence decay after washout. This is another data set of the same source.

Read-outs that look alike come from different tables or passages of the source.

B1: human Drp1 isoform 000 (dynamin-related protein-1), wild type (enzyme, UniProt O00429-4 1-699, looked up)
chain: MEALIPVINKLQDVFNTVGADIIQLPQIVVVGTQSSGKSSVLESLVGRDLLPRGTGIVTRRPLILQLVHVSQEDKRKTTGEENGVEAEEWGKFLHTKNKLYTDFDEIRQEIENETERISGNNKGVSPEPIHLKIFSPNVVNLTLVDLPGMTKVPVGDQPKDIELQIRELILRFISNPNSIILAVTAANTDMATSEALKISREVDPDGRRTLAVITKLDLMDAGTDAMDVLMGRVIPVKLGIIGVVNRSQLDINNKKSVTDSIRDEYAFLQKKYPSLANRNGTKYLARTLNRLLMHHIRDCLPELKTRINVLAAQYQSLLNSYGEPVDDKSATLLQLITKFATEYCNTIEGTAKYIETSELCGGARICYIFHETFGRTLESVDPLGGLNTIDILTAIRNATGPRPALFVPEVSFELLVKRQIKRLEEPSLRCVELVHEEMQRIIQHCSNYSTQELLRFPKLHDAIVEVVTCLLRKRLPVTNEMVHNLVAIELAYINTKHPDFADACGLMNNNIEEQRRNRLARELPSAVSRDKVASGGGGVGDGVQEPTTGNWRGMLKTSKAEELLAEEKSKPIPIMPASPQKGHAVNLLDVPVPVARKLSAREQRDCEVIERLIKSYFLIVRKNIQDSVPKAVMHFLVNHVKDTLQSELVGQLYKSSLLDDLLTESEDMAQRRKEAADMLKALQGASQIIAEIRETHLW
With B1, the Kd (usually the constant that tells how readily two partners part at equilibrium) in data set [1] was found to be 500 nM; in data set [2], 400 nM; in [3] it was 600 nM; in data set [4] it was 1100 nM; in [5] it was 200 nM; in data set [6], 2800 nM. The molecule also gave a Kd in [7] of 800 nM. Further, the stoichiometry N (usually the number of molecules, sites or subunits per partner or assembly) in the data set “AUC” stood at 4.

B2: GFP-Drp1 (human Drp1 isoform 000 with N-terminal GFP A206K) (enzyme)
chain: B1 chain
On to B2, for which the t1/2 of dissociation in data set [8] worked out at 93.1 ± 88 s; in [9] it was 5.4 ± 2 s; in data set [10] it was 84.1 ± 93.6 s; in [11], 26.9 ± 20.6 s; in data set [12] it was 16.5 ± 2.5 s; in data set [13] it was 48.7 ± 20.6 s. The t1/2 of dissociation in [14] is 93.2 ± 94.5 s; in [15] it was 4.1 ± 1.4 s; in data set [16] it was 115 ± 43.5 s; in data set [17], 40 ± 20.3 s; in data set [18] it was 9.9 ± 4.4 s; in data set [19], 9.8 s. Further, the t1/2 of dissociation in data set [20] was 8.1 ± 4.3 s.
